Assay results reported in US8951758B2, “GH61 glycoside hydrolase protein variants and cofactors that enhance GH61 activity” (Codexis, Inc., priority 2011, dated 2015).
Each block holds one molecule with its values, some of them ahead of it.

What was measured:
[1] = tested on: AVICEL® PH microcrystalline cellulose; test: GH61a Variant 1 plus beta-glucosidase with reducing agents or pretreatment filtrate on AVICEL (FIG. 5A); assay type: biochemical; details: 0.3% GH61a Variant 1, 0.08% BGL, 30 μM CuSO4, 48 h, pH 5, 55° C.
Experimental: (§1) This Example provides experiments conducted to determine the effect of adding reducing agents (e.g., gallic acid and ascorbic acid) to saccharification reactions. In these experiments, enhancement of GH61 activity was tested using Variant 1 (SEQ ID NO:5) in the presence of reducing agents (specifically, ascorbic acid or gallic acid) and pretreatment filtrate, which contains various reducing agents from lignin degradation. Reactions were performed on cellulosic substrates, AVICEL® PH microcrystalline cellulose and phosphoric acid swollen cellulose (PASC), with purified M. thermophila-produced GH61 Variant 1 and beta-glucosidase at 0.3% and 0.08% respectively, with respect to substrate glucan mass, and 128 mM sodium acetate buffer (pH 5) supplemented with 30 μM CuSO4. Thus, reactions were performed with 0.3% GH61a and 0.08% BGL, where % enzyme loads are with respect to substrate glucan mass (36 g/L AVICEL® cellulose and 5 g/L PASC). Background (negative) controls were beta-glucosidase-only reactions tested in the absence of GH61a. Glucose production after 48 h incubation at pH 5, 55° C. was determined by glucose oxidase/peroxidase-based or HPLC-based glucose assay glucose assay, using methods known in the art. […] Filtrate dilutions are indicated in this Figure, where undiluted filtrate equals 72% of the total reaction volume. […]

[2] = tested on: phosphoric acid swollen cellulose (PASC); test: GH61a Variant 1 plus beta-glucosidase with reducing agents or pretreatment filtrate on PASC (FIG. 5B); assay type: biochemical; details: 0.3% GH61a Variant 1, 0.08% BGL, 30 μM CuSO4, 48 h, pH 5, 55° C.
Experimental: as §1

pre-treated wheat straw [3] = test: Biomass assay of a cellulase mixture (GH61a, CBH1a, CBH2b, BGL) with surfactants (FIG. 6); assay type: biochemical; details: BGL at 0.3%, 0.15%, 0.08%, 55° C., 72 hours, pH 5
Experimental: This example illustrates the enhancement of overall saccharification yield with the addition of surfactants such as TWEEN®-20 and PEG-4000. Experiments were designed to monitor the enhancement in cellulase activity with different concentrations of TWEEN®-20 or PEG-4000 in the biomass assay. The biomass assay was performed in a total volume of 90 μL, including 10 mg of pre-treated wheat straw, 64.8 μL (72% by volume) of filtrate (or H2O for no filtrate conditions), and 11.6 μl, of a mixture of sodium acetate buffer (pH 5.0, supplemented with CuSO4), M. thermophila-produced cellobiohydrolase 1a (CBH1a), cellobiohydrolase 2b (CBH2b), beta-glucosidase (BGL), and glycoside hydrolase type 61 (GH61a). The final concentration of sodium acetate was 128 mM (with 30 μM CuSO4) and the enzyme loads of CBH1a, CBH2b, BGL and GH61a were 0.15%, 0.15%, 0.08% and 0.3% with respect to the substrate glucan mass in the biomass substrate, respectively. Water was used in place of the enzymes as a negative control. […]
Data shown are total glucose produced by a mixture of GH61a, CBH1a, CBH2b, and BGL at 0.3%, 0.15%, 0.15%, and 0.08% with respect to the substrate glucan mass in the biomass substrate, respectively. In this Figure, TWEEN®-20 concentrations are expressed as % total reaction volume.
In this Figure, PEG-4000 concentrations are expressed as % total reaction volume.

[4] = tested on: M. thermophila CF-416 whole broth cellulases; details: 87g/kg glucan, 0.81% enzyme load, pH 5.0, 55° C., 50 μM CuSO4, 72 hours
pre-treated wheat straw [5] = test: Biomass assay of GH61a pre-incubated with or supplemented by copper(II) (FIG. 3); assay type: biochemical; details: pre-incubated with copper(II) (CuSO4) 0 to 100 μM, 72 h, pH 5, 55° C.
Experimental: Purified M. thermophila-produced GH61a or S. cerevisiae supernatant containing M. thermophila-GH61a was pre-incubated with different amounts of copper(II) (CuSO4) at concentrations of 0 to 100 μM at ambient temperature for 30 min. The biomass assay was then performed in a total volume of 300 μL, in the presence of 10 mg of pre-treated wheat straw, using 261 μL of copper-treated GH61 samples, 39 μL of sodium acetate buffer (pH 5), M. thermophila-produced CBH1a, CBH2b and β-glucosidase. The final concentration of sodium acetate was 120 mM and the enzyme loads of CBHs and β-glucosidase (CBH1a and CBH2b in 1:1 ratio) were 0.01% and 0.02% with respect to substrate glucan mass in the biomass substrate, respectively. Background (negative) controls were obtained by using either water or media supernatant from cultures of S. cerevisiae cells without the GH61a gene in the plasmid. Thus, the negative controls represent activities of CBH1a, CBH2b and beta-glucosidase in the absence of GH61a. The reaction was incubated at 55° C. for 72 hours with shaking.
Some experiments were also performed without pre-incubating GH61 with copper(II), but instead, by directly adding different amounts of copper(II) (CuSO4) to the biomass assay reactions as described herein.
Biomass assays were performed with (A) S. cerevisiae-produced M. thermophila GH61a Variant 5, and (B) M. thermophila-produced wild-type GH61a. Glucose production after 72 h incubation at pH 5, 55° C. was determined by the glucose assay. The data in this Figure indicate GH61a-only activity, in which the amount of glucose produced in control reaction containing CBH and β-glucosidase was subtracted from the total amount of glucose produced in the reactions with GH61a. In this Figure, N=4; and the error bars represent ±1 standard deviation. Copper concentrations shown are with respect to the total reaction volume.

crystalline cellulose = test: Saccharification of crystalline cellulose by cellulase enzymes in culture broth from M. thermophila cells with GH61a added (FIG. 1); assay type: biochemical; details: GH61a added to cellulases of M. thermophila culture broth
Experimental: FIG. 1 provides results of an experiment using recombinantly produced GH61a protein having the sequence shown in SEQ ID NO:2. The protein was tested for its ability to promote the activity of cellulases present in culture broth of M. thermophila.
A protein from a strain of M. thermophila having the amino acid sequence provided in SEQ ID NO:2 was previously identified as having GH61 activity. It was designated “GH61a”.

[6] = tested on: pretreated wheat straw (PWS); test: Supplementation of CF-416 whole cellulase broth with single purified enzymes, saccharification of pretreated wheat straw; assay type: biochemical; details: 0.4% single enzyme added to 0.5% CF-416 whole cellulase broth base
Experimental: (§2) In this Example, M. thermophila-produced and purified GH61a, GH61p, GH61f, GH61n, CBH1a, CBH2b, AXE3, FAE, and Xyl3, were used to supplement the activity present in culture broths (i.e., “whole broth cellulase base”) of the M. thermophila strain CF-416 prepared using standard methods known in the art. The broth cellulase base was fixed to 0.5% protein and the single purified enzyme was added at 0.4% (wt added protein/wt glucan) to the saccharification reactions. The whole cellulase broth base and individual enzymes were characterized by standard BCA assays for total protein quantification.
(§3) The saccharification reactions were carried out at 74 g/L glucan load of pretreated wheat straw (PWS) or pretreated corn stover (PCS) at pH 5.0, 55° C. at 950 rpm in the presence of 50 μM copper in high throughput (HTP) 96 deep well plates. Glucose analysis was carried out by the glucose oxidase assay as described above. In each case, the fold improvement was calculated using the formula Fold Improvement=[Total Glucose Production with addition of 0.4% single enzyme to the whole cellulase broth base]/[glucose production from the 0.5% whole cellulase broth base]. In this Table, the fold improvements were ranked from 0 to 3; fold improvements less than 1.2× are indicated by “0,” fold improvements of >1.2 to <1.5 are indicated by “1,” fold improvements of ≧1.5× to <1.7× improvements are indicated by “2,” and fold improvements ≧1.7 are indicated by “3.”

[7] = tested on: pretreated corn stover (PCS); test: Supplementation of CF-416 whole cellulase broth with single purified enzymes, saccharification of pretreated corn stover; assay type: biochemical; details: 0.4% single enzyme added to 0.5% CF-416 whole cellulase broth base; 74 g/L glucan, pH 5.0, 55° C., 50 μM copper
Experimental: as §2, §3

GH61 activity in generating soluble sugars from AVICEL® cellulose [1]: improved
GH61 activity in generating soluble sugars from PASC [2]: improved
Molecule: O=C(O)c1cc(O)c(O)c(O)c1 [gallic acid]

improvement over whole cellulase broth on PWS, in words [6]: greatest benefit
Fold Improvement Over Whole Cellulase Broth Tested on PWS ([6]; 74 g/L glucan, pH 5.0, 55° C., 50 μM copper): 3 (fold improvements ≧1.7)
Fold Improvement Over Whole Cellulase Broth Tested on PCS [7]: 2 (fold improvements of ≧1.5× to <1.7×)
B1: GH61a: Wild-type M. thermophila C1 GH61a polypeptide (SEQ ID NO:2) (protein, listed as Myceliophthora thermophila)
chain: MSKASALLAGLTGAALVAAHGHVSHIVVNGVYYRNYDPTTDWYQPNPPTVIGWTAADQDNGFVEPNSFGTPDIICHKSATPGGGHATVAAGDKINIVWTPEWPESHIGPVIDYLAACNGDCETVDKSSLRWFKIDGAGYDKAAGRWAADALRANGNSWLVQIPSDLKAGNYVLRHEIIALHGAQSPNGAQAYPQCINLRVTGGGSNLPSGVAGTSLYKATDPGILFNPYVSSPDYTVPGPALIAGAASSIAQSTSVATATGTATVPGGGGANPTATTTAATSAAPSTTLRTTTTSAAQTTAPPSGDVQTKYGQCGGNGWTGPTVCAPGSSCSVLNEWYSQCL
GH61a-only activity (glucose production) when Cu^++ is included in the reaction (pre-treated wheat straw [5]; listed as M. thermophila-produced GH61a): improved
GH61a-only activity (glucose production) when Cu^++ is included in the reaction (pre-treated wheat straw [5]; listed as wild-type GH61a): increase
glucose yield (crystalline cellulose): improvement in glucose yield

Continued, molecule first:

Molecule: TWEEN®-20
total glucose production in the saccharification reaction (pre-treated wheat straw [3]): enhanced

Molecule: O=O [oxygen]
glucose yields, closed flask vs flask opened at 4 hrs and 24 hrs for fresh air [4]: not a limiting factor
